Experimental data published in patent US20260242735A1 (UNIVERSIT T BASEL, published 2026).

What was measured:
Test in all cases: alanine scan, flow cytometry;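 further: HEK293-T cells transiently expressing single-residue alanine mutants of CD33 (alanine swapped to serine), antibody binding read by fluorescence in duplicate, background-subtracted, expressed relative to wild-type CD33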
human CD33 P48A = human CD33 P48A (human, UniProt P20138 18-364)
human CD33 D79A = human CD33 D79A (human, UniProt P20138 18-364)
human CD33 N76A = human CD33 N76A (human, UniProt P20138 18-364)
Chain of human CD33 N76A (P20138 18-364 N76A limits assumed): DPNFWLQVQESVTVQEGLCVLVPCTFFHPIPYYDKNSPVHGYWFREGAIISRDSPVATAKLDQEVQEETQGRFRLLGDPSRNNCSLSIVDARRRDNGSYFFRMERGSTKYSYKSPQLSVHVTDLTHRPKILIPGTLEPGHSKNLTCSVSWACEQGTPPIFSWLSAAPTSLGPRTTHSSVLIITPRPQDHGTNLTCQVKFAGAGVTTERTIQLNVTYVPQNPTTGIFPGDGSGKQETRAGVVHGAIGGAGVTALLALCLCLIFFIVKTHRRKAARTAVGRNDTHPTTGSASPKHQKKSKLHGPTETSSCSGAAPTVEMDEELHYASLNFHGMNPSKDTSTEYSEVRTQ

human CD33 K77A = human CD33 K77A (human, UniProt P20138 18-364)
Chain of human CD33 K77A (P20138 18-364 K77A limits assumed): as the sequence (P20138 18-364 N76A limits assumed) above, with A59N, K60A counted along it

human CD33 R69A = human CD33 R69A (human, UniProt P20138 18-364)
Chain of human CD33 R69A (P20138 18-364 R69A limits assumed): as the sequence (P20138 18-364 N76A limits assumed) above, with R52A, A59N counted along it

human CD33 S68A = human CD33 S68A (human, UniProt P20138 18-364)
human CD33 Q32A = human CD33 Q32A (human, UniProt P20138 18-364)
human CD33 E63A = human CD33 E63A (human, UniProt P20138 18-364)
human CD33 G88A = human CD33 G88A (human, UniProt P20138 18-364)
human CD33 T42A = human CD33 T42A (human, UniProt P20138 18-364)
Chain of human CD33 T42A (P20138 18-364 T42A limits assumed): as the sequence (P20138 18-364 N76A limits assumed) above, with T25A, A59N counted along it

human CD33 P19A = human CD33 P19A (human, UniProt P20138 18-364)
human CD33 Y59A = human CD33 Y59A (human, UniProt P20138 18-364)
human CD33 H45A = human CD33 H45A (human, UniProt P20138 18-364)
human CD33 V25A = human CD33 V25A (human, UniProt P20138 18-364)
human CD33 P55A = human CD33 P55A (human, UniProt P20138 18-364)
Chain of human CD33 P55A (P20138 18-364 P55A limits assumed): as the sequence (P20138 18-364 N76A limits assumed) above, with P38A, A59N counted along it

human CD33 L23A = human CD33 L23A (human, UniProt P20138 18-364)
human CD33 V29A = human CD33 V29A (human, UniProt P20138 18-364)
Chain of human CD33 V29A (P20138 18-364 V29A limits assumed): as the sequence (P20138 18-364 N76A limits assumed) above, with V12A, A59N counted along it

human CD33 W60A = human CD33 W60A (human, UniProt P20138 18-364)
human CD33 T75A = human CD33 T75A (human, UniProt P20138 18-364)
human CD33 E81A = human CD33 E81A (human, UniProt P20138 18-364)
Chain of human CD33 E81A (P20138 18-364 E81A limits assumed): as the sequence (P20138 18-364 N76A limits assumed) above, with A59N, E64A counted along it

human CD33 D18A = human CD33 D18A (human, UniProt P20138 19-364)
human CD33 E85A = human CD33 E85A (human, UniProt P20138 18-364)
human CD33 Y50A = human CD33 Y50A (human, UniProt P20138 18-364)
human CD33 N53A = human CD33 N53A (human, UniProt P20138 18-364)
human CD33 D70A = human CD33 D70A (human, UniProt P20138 18-364)
human CD33 W22A = human CD33 W22A (human, UniProt P20138 18-364)
Chain of human CD33 W22A (P20138 18-364 W22A limits assumed): as the sequence (P20138 18-364 N76A limits assumed) above, with W5A, A59N counted along it

human CD33 S54A = human CD33 S54A (human, UniProt P20138 18-364)
human CD33 S71A = human CD33 S71A (human, UniProt P20138 18-364)
Chain of human CD33 S71A (P20138 18-364 S71A limits assumed): as the sequence (P20138 18-364 N76A limits assumed) above, with S54A, A59N counted along it

human CD33 Q83A = human CD33 Q83A (human, UniProt P20138 18-364)
Chain of human CD33 Q83A (P20138 18-364 Q83A limits assumed): as the sequence (P20138 18-364 N76A limits assumed) above, with A59N, Q66A counted along it

human CD33 Q87A = human CD33 Q87A (human, UniProt P20138 18-364)
Chain of human CD33 Q87A (P20138 18-364 Q87A limits assumed): as the sequence (P20138 18-364 N76A limits assumed) above, with A59N, Q70A counted along it

human CD33 Q80A = human CD33 Q80A (human, UniProt P20138 18-364)
human CD33 E27A = human CD33 E27A (human, UniProt P20138 18-364)
human CD33 G58A = human CD33 G58A (human, UniProt P20138 18-364)
Chain of human CD33 G58A (P20138 18-364 G58A limits assumed): as the sequence (P20138 18-364 N76A limits assumed) above, with G41A, A59N counted along it

human CD33 V82A = human CD33 V82A (human, UniProt P20138 18-364)
human CD33 L38A = human CD33 L38A (human, UniProt P20138 18-364)
Chain of human CD33 L38A (P20138 18-364 L38A limits assumed): as the sequence (P20138 18-364 N76A limits assumed) above, with L21A, A59N counted along it

human CD33 H57A = human CD33 H57A (human, UniProt P20138 18-364)
human CD33 F90A = human CD33 F90A (human, UniProt P20138 18-364)
human CD33 T86A = human CD33 T86A (human, UniProt P20138 18-364)
human CD33 Q24A = human CD33 Q24A (human, UniProt P20138 18-364)
human CD33 T30A = human CD33 T30A (human, UniProt P20138 18-364)
Chain of human CD33 T30A (P20138 18-364 T30A limits assumed): as the sequence (P20138 18-364 N76A limits assumed) above, with T13A, A59N counted along it

human CD33 L78A = human CD33 L78A (human, UniProt P20138 18-364)
human CD33 E84A = human CD33 E84A (human, UniProt P20138 18-364)

- Mean % WT Binding (human CD33 P48A): 109 % WT
- Mean % WT Binding (human CD33 D79A): 102 % WT
- Mean % WT Binding (human CD33 N76A): 106 % WT
- Mean % WT Binding (human CD33 K77A): 123 % WT
- Mean % WT Binding (human CD33 R69A): 138 % WT
- Mean % WT Binding (human CD33 S68A): 112 % WT
- Mean % WT Binding (human CD33 Q32A): 108 % WT
- Mean % WT Binding (human CD33 E63A): 107 % WT
- Mean % WT Binding (human CD33 G88A): 110 % WT
- Mean % WT Binding (human CD33 T42A): 112 % WT
- Mean % WT Binding (human CD33 P19A): 111 % WT
- Mean % WT Binding (human CD33 Y59A): 95.7 % WT
- Mean % WT Binding (human CD33 H45A): 73.6 % WT
- Mean % WT Binding (human CD33 V25A): 87.1 % WT
- Mean % WT Binding (human CD33 P55A): 120 % WT
- Mean % WT Binding (human CD33 L23A): 83.4 % WT
- Mean % WT Binding (human CD33 V29A): 100 % WT
- Mean % WT Binding (human CD33 W60A): 2.8 % WT
- Mean % WT Binding (human CD33 T75A): 114 % WT
- Mean % WT Binding (human CD33 E81A): 107 % WT
- Mean % WT Binding (human CD33 D18A): 119 % WT
- Mean % WT Binding (human CD33 E85A): 114 % WT
- Mean % WT Binding (human CD33 Y50A): 141 % WT
- Mean % WT Binding (human CD33 N53A): 96 % WT
- Mean % WT Binding (human CD33 D70A): 110 % WT
- Mean % WT Binding (human CD33 W22A): 110 % WT
- Mean % WT Binding (human CD33 S54A): 112 % WT
- Mean % WT Binding (human CD33 S71A): 112 % WT
- Mean % WT Binding (human CD33 Q83A): 107 % WT
- Mean % WT Binding (human CD33 Q87A): 118 % WT
- Mean % WT Binding (human CD33 Q80A): 112 % WT
- Mean % WT Binding (human CD33 E27A): 111 % WT
- Mean % WT Binding (human CD33 G58A): 118 % WT
- Mean % WT Binding (human CD33 V82A): 116 % WT
- Mean % WT Binding (human CD33 L38A): 112 % WT
- Mean % WT Binding (human CD33 H57A): 112 % WT
- Mean % WT Binding (human CD33 F90A): 104 % WT
- Mean % WT Binding (human CD33 T86A): 113 % WT
- Mean % WT Binding (human CD33 Q24A): 103 % WT
- Mean % WT Binding (human CD33 T30A): 92.1 % WT
- Mean % WT Binding (human CD33 L78A): 108 % WT
- Mean % WT Binding (human CD33 E84A): 114 % WT
B1: Refmab #2 (antibody, V domains shown)
VH: QVQLVQSGAEVKKPGSSVKVSCKASGGTFSDYAISWVRQAPGQGLEWMGRIIPILGVADYAQKFQGRVTITADKSTRTAYMELSSLRSEDTAVYYCARNWADAFDIWGQGTMVTVSS
VL: DIQLTQSPSSLSASVGDRVTITCRASQGISSVLAWYQQKPGKAPKLLIYDASSLESGVPSRFSGSGSGTDFTLTISSLQPEDFATYYCQQFDSSITFGQGTKLEIK
notes: Full-length format is human IgG1 Fc silent (PG-LALA); The alanine scan used IgG or Fab
